The source of these data is publication PMC8842248 (Journal of Medicinal Chemistry, 2022).

What all share (settings): both partners purified
In assay [1] the target is T1, PDE6D (phosphodiesterase 6 delta), wild type, polyhistidine tag removed (UniProt O43924 1-150).
T1 construct: Cloned into pRSF-Duet and pBDDB-SPR3; also called PDE6D WT; WT PDE6D; source: E. coli BL21 DE3, purified (HisTrap, TEV protease, reverse HisTrap, Superdex S75)
The experiment in a line: fluorescence polarisation; fluorescein-labeled KRAS S3I1 peptide at 5 nM, PDE6D 0-512 nM in twofold dilutions; 20 mM Tris pH 7.5, 150 mM NaCl, 2 mM DTT; quadratic fit in GraFit. On the technique in general: In fluorescence polarisation assays a small probe gives low polarisation when free and higher when bound to something large.

The next assay has as its target T2, PDE6D M20K, untagged (UniProt O43924 1-150, M20K).
T2 construct: PDE6D with M20K; Printed as 'untagged PDE6D.M20K' in the pulldown and release assay; also called attenuated PDE6D
The description is as above.

Assay [2] concerns the target T1, PDE6D (phosphodiesterase 6 delta), wild …. The experiment in a line: fluorescence polarisation; fluorescein-…(OMe)-Far at 500 nM, PDE6D 20 to 0.156 μM in twofold dilutions, without or with compound at 500 μM; 20 mM Tris pH 7.5, 150 mM NaCl, 2 mM DTT, 5% DMSO.

*: point of attachment. fluorescein = fluorescein label on the N-terminus; Farnesyl = CC(C)=CCC/C(C)=C/CC/C(C)=C/C*; FAM = fluorescein

B1: KRAS S3I1 peptide, fluorescein-DGKKKKKKSSTIC(OMe)-farnesyl (peptide)
peptide: fluorescein-DGKKKKKKSSTIC(Farnesyl)-OMe
notes: also called KRAS S3I1 variant; source: synthetic peptide (JPT Innovative Peptide Solutions)
With B1, the Kd in assay [1] stood at 0.05 nM; with PDE6D M20K, untagged, 2.62 ± 1.7 nM.

B2: fluorescein-labeled KRAS HVR peptide, FAM-KKKKKKSKTKC(OMe)-Far (peptide)
peptide: {FAM}-KKKKKKSKTKC(Farnesyl)-OMe
notes: wild-type KRAS (KRAS4B) HVR peptide ending at the farnesylated C185; also called KRAS WT peptide
As to B2, the binding result in assay [2] was “binds”.

By Kd is commonly meant the free concentration of one partner at which half of the binding sites on the other are occupied at equilibrium, for simple one-to-one binding. Low readings indicate tighter binding, high ones weaker binding.
